Reference: US20180155451A1 (published 2018)

B1: GpH7-A5/GpH7-B3 variant A330_16H/GpL16-k0 (antibody, human IgG1, kappa)
heavy 1: not shown
heavy 2: not shown
light: DIVMTQSPLSLPVTPGEPASISCQASESLVHSNRNTYLHWYLQKPGQSPQLLIYKVSNRFSGVPDRFSGSGSGTDFTLKISRVEAEDVGVYYCSQNTHVPPTFGQGTKVEIERTVAAPSVFIFPPSDEQLKSGTASVVCLLNNFYPREAKVQWKVDNALQSGNSQESVTEQDSKDSTYSLSSTLTLSKADYEKHKVYACEVTHQGLSSPVTKSFNRGEC
notes: He Ab: heterodimerized anti-glypican-3 IgG1, substitution in one H chain only; also called He Ab A330H
B2: GpH7-A5/GpH7-B3 variant P329_11K/GpL16-k0 (antibody, human IgG1, kappa)
heavy 1: not shown
heavy 2: not shown
light: B1 light
notes: He Ab: substitution in one H chain only; also called He Ab P329K
B3: GpH7-A5/GpH7-B3 variant I336_15Y/GpL16-k0 (antibody, human IgG1, kappa)
heavy 1: not shown
heavy 2: not shown
light: B1 light
notes: He Ab: heterodimerized anti-glypican-3 IgG1, substitution in one H chain only; also called He Ab I336Y
B4: GpH7-A5/GpH7-B3 variant I336_13S/GpL16-k0 (antibody, human IgG1, kappa)
heavy 1: not shown
heavy 2: not shown
light: B1 light
notes: He Ab: heterodimerized anti-glypican-3 IgG1, substitution in one H chain only; also called He Ab I336S
B5: GpH7-A5/GpH7-B3 variant P329_07I/GpL16-k0 (antibody, human IgG1, kappa)
heavy 1: not shown
heavy 2: not shown
light: B1 light
notes: He Ab: heterodimerized anti-glypican-3 IgG1, substitution in one H chain only; also called He Ab P329I
B6: GpH7-A5/GpH7-B3 variant I336_02A/GpL16-k0 (antibody, human IgG1, kappa)
heavy 1: not shown
heavy 2: not shown
light: B1 light
notes: He Ab: heterodimerized anti-glypican-3 IgG1, substitution in one H chain only; also called He Ab I336A
B7: GpH7-A5/GpH7-B3 variant L328_01G/GpL16-k0 (antibody, human IgG1, kappa)
heavy 1: not shown
heavy 2: not shown
light: B1 light
notes: He Ab: heterodimerized anti-glypican-3 IgG1, substitution in one H chain only; also called He Ab L328G
B8: GpH7-A5/GpH7-B3 variant E333_16H/GpL16-k0 (antibody, human IgG1, kappa)
heavy 1: not shown
heavy 2: not shown
light: B1 light
notes: He Ab: heterodimerized anti-glypican-3 IgG1, substitution in one H chain only; also called He Ab E333H
B9: GpH7-A5/GpH7-B3 variant P329_09D/GpL16-k0 (antibody, human IgG1, kappa)
heavy 1: not shown
heavy 2: not shown
light: B1 light
notes: He Ab: substitution in one H chain only; also called He Ab P329D
B10: GpH7-A5/GpH7-B3 variant E333_11K/GpL16-k0 (antibody, human IgG1, kappa)
heavy 1: not shown
heavy 2: not shown
light: B1 light
notes: He Ab: heterodimerized anti-glypican-3 IgG1, substitution in one H chain only; also called He Ab E333K
B11: GpH7-A5/GpH7-B3 variant A330_20W/GpL16-k0 (antibody, human IgG1, kappa)
heavy 1: not shown
heavy 2: not shown
light: B1 light
notes: He Ab: heterodimerized anti-glypican-3 IgG1, substitution in one H chain only; also called He Ab A330W
B12: GpH7-A5/GpH7-B3 variant I332_12R/GpL16-k0 (antibody, human IgG1, kappa)
heavy 1: not shown
heavy 2: not shown
light: B1 light
notes: He Ab: heterodimerized anti-glypican-3 IgG1, substitution in one H chain only; also called He Ab I332R
B13: GpH7-A5/GpH7-B3 variant E333_13S/GpL16-k0 (antibody, human IgG1, kappa)
heavy 1: not shown
heavy 2: not shown
light: B1 light
notes: He Ab: heterodimerized anti-glypican-3 IgG1, substitution in one H chain only; also called He Ab E333S
B14: GpH7-A5/GpH7-B3 variant A330_18N/GpL16-k0 (antibody, human IgG1, kappa)
heavy 1: not shown
heavy 2: not shown
light: B1 light
notes: He Ab: heterodimerized anti-glypican-3 IgG1, substitution in one H chain only; also called He Ab A330N
B15: GpH7-A5/GpH7-B3 variant P329_02A/GpL16-k0 (antibody, human IgG1, kappa)
heavy 1: not shown
heavy 2: not shown
light: B1 light
notes: He Ab: heterodimerized anti-glypican-3 IgG1, substitution in one H chain only; also called He Ab P329A
B16: GpH7-A5/GpH7-B3 variant P329_04F/GpL16-k0 (antibody, human IgG1, kappa)
heavy 1: not shown
heavy 2: not shown
light: B1 light
notes: He Ab: heterodimerized anti-glypican-3 IgG1, substitution in one H chain only; also called He Ab P329F
B17: GpH7-A5/GpH7-B3 variant I336_19Q/GpL16-k0 (antibody, human IgG1, kappa)
heavy 1: not shown
heavy 2: not shown
light: B1 light
notes: He Ab: heterodimerized anti-glypican-3 IgG1, substitution in one H chain only; also called He Ab I336Q
B18: GpH7-A5/GpH7-B3 variant L328_18N/GpL16-k0 (antibody, human IgG1, kappa)
heavy 1: not shown
heavy 2: not shown
light: B1 light
notes: He Ab: heterodimerized anti-glypican-3 IgG1, substitution in one H chain only; also called He Ab L328N
B19: GpH7-A5/GpH7-B3 variant P329_12R/GpL16-k0 (antibody, human IgG1, kappa)
heavy 1: not shown
heavy 2: not shown
light: B1 light
notes: He Ab: substitution in one H chain only; also called He Ab P329R
B20: GpH7-A5/GpH7-B3 variant E333_18N/GpL16-k0 (antibody, human IgG1, kappa)
heavy 1: not shown
heavy 2: not shown
light: B1 light
notes: He Ab: heterodimerized anti-glypican-3 IgG1, substitution in one H chain only; also called He Ab E333N
B21: GpH7-A5/GpH7-B3 variant P329_10E/GpL16-k0 (antibody, human IgG1, kappa)
heavy 1: not shown
heavy 2: not shown
light: B1 light
notes: He Ab: substitution in one H chain only; also called He Ab P329E
B22: GpH7-A5/GpH7-B3 variant P329_08L/GpL16-k0 (antibody, human IgG1, kappa)
heavy 1: not shown
heavy 2: not shown
light: B1 light
notes: He Ab: heterodimerized anti-glypican-3 IgG1, substitution in one H chain only; also called He Ab P329L
B23: GpH7-A5/GpH7-B3 variant P329_06M/GpL16-k0 (antibody, human IgG1, kappa)
heavy 1: not shown
heavy 2: not shown
light: B1 light
notes: He Ab: heterodimerized anti-glypican-3 IgG1, substitution in one H chain only; also called He Ab P329M
B24: GpH7-A5/GpH7-B3 variant E333_12R/GpL16-k0 (antibody, human IgG1, kappa)
heavy 1: not shown
heavy 2: not shown
light: B1 light
notes: He Ab: heterodimerized anti-glypican-3 IgG1, substitution in one H chain only; also called He Ab E333R
B25: GpH7-A5/GpH7-B3 variant I336_01G/GpL16-k0 (antibody, human IgG1, kappa)
heavy 1: not shown
heavy 2: not shown
light: B1 light
notes: He Ab: heterodimerized anti-glypican-3 IgG1, substitution in one H chain only; also called He Ab I336G
B26: GpH7-A5/GpH7-B3 variant I336_20W/GpL16-k0 (antibody, human IgG1, kappa)
heavy 1: not shown
heavy 2: not shown
light: B1 light
notes: He Ab: heterodimerized anti-glypican-3 IgG1, substitution in one H chain only; also called He Ab I336W
B27: GpH7-A5/GpH7-B3 variant E333_02A/GpL16-k0 (antibody, human IgG1, kappa)
heavy 1: not shown
heavy 2: not shown
light: B1 light
notes: He Ab: heterodimerized anti-glypican-3 IgG1, substitution in one H chain only; also called He Ab E333A
B28: GpH7-A5/GpH7-B3 variant L328_05P/GpL16-k0 (antibody, human IgG1, kappa)
heavy 1: not shown
heavy 2: not shown
light: B1 light
notes: He Ab: heterodimerized anti-glypican-3 IgG1, substitution in one H chain only; also called He Ab L328P
B29: GpH7-A5/GpH7-B3 variant P329_03V/GpL16-k0 (antibody, human IgG1, kappa)
heavy 1: not shown
heavy 2: not shown
light: B1 light
notes: He Ab: heterodimerized anti-glypican-3 IgG1, substitution in one H chain only; also called He Ab P329V
B30: GpH7-A5/GpH7-B3 variant E333_01G/GpL16-k0 (antibody, human IgG1, kappa)
heavy 1: not shown
heavy 2: not shown
light: B1 light
notes: He Ab: heterodimerized anti-glypican-3 IgG1, substitution in one H chain only; also called He Ab E333G

Columns and labels:
[1] = molecular target: T1, FcγRIa extracellular domain with C-terminal His tag (human, UniProt P12314 16-292); test: SPR (Biacore), antibody captured on antigen peptide chip, FcγR as analyte; binding relative to GpH7-A5/GpH7-B3/GpL16-k0 = 100
T1 construct: extracellular domain; Soluble receptor expressed in FreeStyle293 cells; analyte in Biacore; also called FcgRI; FcgRIa; not shown: His tag at the C terminus
T1 sequence (P12314 16-292): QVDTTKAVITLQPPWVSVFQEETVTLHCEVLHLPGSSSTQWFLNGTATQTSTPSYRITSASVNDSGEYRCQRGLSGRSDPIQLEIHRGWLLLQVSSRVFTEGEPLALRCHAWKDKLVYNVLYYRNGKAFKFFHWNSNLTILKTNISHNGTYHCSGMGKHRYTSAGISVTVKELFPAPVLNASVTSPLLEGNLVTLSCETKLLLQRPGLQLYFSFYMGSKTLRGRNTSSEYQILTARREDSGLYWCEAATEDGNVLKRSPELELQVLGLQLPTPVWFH
Protocol: (§1) The heterodimerized antibodies He Abs in which one of the H chains was introduced with an alteration were assayed for their binding activities to each activating FcγR and inhibitory FcγR according to the method described in Example 4. […] The activating FcγRs in FIGS. 26, 27, 28, and 29 are FcγRIa, FcγRIIa (R), FcγRIIa (H), and FcγRIIIa, respectively.
(§2) Analysis of interaction between objective antibody and the FcγR was carried out using Biacore T100 (GE Healthcare). HBS-EP+ (GE Healthcare) was used as the running buffer, and the measurement temperature was set to 25° C. Chips produced by immobilizing the antigen peptide by the amine coupling method to a Series S Sencor Chip CM5 (GE Healthcare), or alternatively, chips produced by allowing preliminarily biotinylated antigen peptides to interact with and immobilize onto a Series S Sensor Chip SA (certified) (GE Healthcare) were used. Antibodies of interest were captured onto an antigen peptide-immobilized chip, and allowed to interact to each FcγR diluted with running buffer. To regenerate and repeatedly use the chip, the antibodies captured on the chip were washed off by reacting 10 mM glycine-HCl, pH 1.5.

[2] = molecular target: T2, FcγRIIb extracellular domain with C-terminal His tag (human, UniProt P31994 43-217); test: as above
T2 construct: extracellular domain; Soluble receptor expressed in FreeStyle293 cells; analyte in Biacore; also called FcgRIIb; 2b; not shown: His tag at the C terminus
T2 sequence (looked up): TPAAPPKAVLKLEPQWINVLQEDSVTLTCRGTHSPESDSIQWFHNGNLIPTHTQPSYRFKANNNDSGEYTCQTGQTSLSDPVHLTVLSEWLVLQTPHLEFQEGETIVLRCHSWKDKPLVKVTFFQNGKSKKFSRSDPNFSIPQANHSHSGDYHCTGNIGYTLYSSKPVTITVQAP
Protocol: as §1, §2

[3] = molecular target: T1, FcγRIa extracellular domain with …; test: SPR (Biacore); He/Con_1a divided by He/Con_2b (FcγRIIb)
Protocol: as §1, §2

Binder | He/Con_1a (Ia binding) [1] | He/Con_2b (IIb binding) [2] | He_1a/2b (Ia/IIb) [3]
B1 | 106 % of control (control = 100) | 87.6 % of control (control = 100) | 1.21
B2 | 70.4 % of control (control = 100) | 16.9 % of control (control = 100) | 4.17
B3 | 103 % of control (control = 100) | 68.2 % of control (control = 100) | 1.51
B4 | 102 % of control (control = 100) | 83.7 % of control (control = 100) | 1.22
B5 | 94.1 % of control (control = 100) | 34.6 % of control (control = 100) | 2.72
B6 | 106 % of control (control = 100) | 84.9 % of control (control = 100) | 1.25
B7 | 97.2 % of control (control = 100) | 80.2 % of control (control = 100) | 1.21
B8 | 101 % of control (control = 100) | 83.3 % of control (control = 100) | 1.21
B9 | 77.6 % of control (control = 100) | 53.5 % of control (control = 100) | 1.45
B10 | 102 % of control (control = 100) | 80.6 % of control (control = 100) | 1.27
B11 | 108 % of control (control = 100) | 76.1 % of control (control = 100) | 1.41
B12 | 100 % of control (control = 100) | 48.9 % of control (control = 100) | 2.05
B13 | 103 % of control (control = 100) | 81.8 % of control (control = 100) | 1.26
B14 | 106 % of control (control = 100) | 63.7 % of control (control = 100) | 1.67
B15 | 102 % of control (control = 100) | 40.5 % of control (control = 100) | 2.52
B16 | 92.7 % of control (control = 100) | 32.2 % of control (control = 100) | 2.88
B17 | 104 % of control (control = 100) | 58.2 % of control (control = 100) | 1.78
B18 | 98.7 % of control (control = 100) | 80.8 % of control (control = 100) | 1.22
B19 | 74.3 % of control (control = 100) | 17.6 % of control (control = 100) | 4.22
B20 | 96.6 % of control (control = 100) | 76.1 % of control (control = 100) | 1.27
B21 | 78.8 % of control (control = 100) | 52.7 % of control (control = 100) | 1.5
B22 | 85.7 % of control (control = 100) | 29.1 % of control (control = 100) | 2.95
B23 | 85.3 % of control (control = 100) | 29.1 % of control (control = 100) | 2.94
B24 | 102 % of control (control = 100) | 80.4 % of control (control = 100) | 1.27
B25 | 109 % of control (control = 100) | 90.1 % of control (control = 100) | 1.21
B26 | 86.7 % of control (control = 100) | 20.3 % of control (control = 100) | 4.28
B27 | 103 % of control (control = 100) | 83.8 % of control (control = 100) | 1.23
B28 | 92.2 % of control (control = 100) | 65.1 % of control (control = 100) | 1.42
B29 | 97.4 % of control (control = 100) | 38.5 % of control (control = 100) | 2.53
B30 | 103 % of control (control = 100) | 81.4 % of control (control = 100) | 1.26
